How the values were obtained:
ErbB-3-Ig [1] = biological target: T1, ErbB-3-Ig (Homo sapiens, UniProt P21860); assay: Phage ELISA of phage-displayed HRG-β1 variants, binding to ErbB-3-Ig
T1 construct: expressed the extracellular domain (ECD) of the ErbB-2, ErbB-3, or ErbB-4 receptor fused to a human IgG constant domain; made in house; host or cells: HEK-293 cells, secreted, Protein A purified
Procedure: To produce phage displaying the domains, mutagenesis reaction mixtures were electrotransformed into XL1-Blue™ cells (Stratagene, Inc., La Jolla, Calif.), according to the manufacturer's protocol. The transformed cells were then infected with 10^14 plaque-forming units (pfu) M13K07 helper phage (Promega Corp., Madison, Wis.). Phage stocks (about 10^14 phagemid/mL) were prepared by precipitating culture broths from the cells after 18-24 hours (h) of growth with 20% PEG(2000)/2.5 M NaCl, according to the method of Sambrook and Maniatis, Molecular Cloning a Laboratory Manual Cold Spring Harbor Press 429 (1989). […]
Serial dilutions of soluble ErbB-2/3-Ig (competitor) and a concentration of phage predetermined to give 60% saturation (without competitor) were added to the wells in 100 μL binding buffer. […] The amount of phage binding was determined by assaying horseradish peroxidase activity using o-phenylenediamine dihydrochloride) substrate solution (Sigma Chemical Company, St. Louis, Mo.). EC50 values were calculated as the concentration of soluble ErbB-2/3-Ig required to compete half of the phage off the plate.
Alanine-substituted variants were generated by site-directed mutagenesis according to Kunkel et al., Methods Enzymol. […] The affinities of the alanine-substituted variants for ErbB-3-Ig and ErbB-4-Ig was determined by phage ELISA as described in Example 1. […]

ErbB-2/3-Ig = assay: Inhibition of 125I-HRG binding by soluble HRG-β1 EGF variants; conditions: ErbB-2/3-Ig versus ErbB-3-Ig homodimer
Procedure: The affinities of the soluble variants for ErbB-Ig were determined by measuring inhibition of ^125I-HRG binding to ErbB-2/3, -3 and -4 receptor-Ig fusions, as previously described in Example 1.

ErbB-3-Ig [2] = biological target: T1, ErbB-3-Ig; assay: Inhibition of 125I-HRG-β1 177-244 binding by soluble Trx-variant fusions; conditions: soluble thioredoxin (Trx)-variant fusions; HRG-β1 = recombinant HRG-β1 177-244
Procedure: (§1) The affinities of the Trx-variant fusions for ErbB receptor-Ig fusions were determined by measuring inhibition of ^125I-HRG-β1 177-244 binding to ErbB-3-Ig and ErbB-4-Ig. Receptor fusions were coated on plates (Nunc Maxisorp C™ break-apart strip wells, Inter Med, Denmark) via anti-human IgG, as described in Example 1 for phage ELISA. Binding assays were carried out with a constant amount of ^125I-HRG-β1 177-244 (100-300 pM) and varying concentrations (100 pM-4 μM) of unlabeled Trx-variant fusion. Following incubation for 1-3 h at room temperature, plates were washed, and the amount of bound ^125I-HRG-β1 177-244 in each well was counted on a gamma counter (Isodata, ICN Biomedic Systems, Huntsville, Ala.). For the ErbB-3 binding assays, the blocking buffer was TBST (0.025 M Tris-HCl [pH 7.5], 0.15 M NaCl, 0.02% Tween 20™) containing 1% BSA; the binding buffer was RPMI 1640™ cell culture media (Gibco-BRL, Gaithersburg, Md.) containing 2 mM glutamine, 100 U/mL penicillin, 100 μg/mL streptomycin, 10 mM HEPES buffer (pH 7.2), 0.2% BSA; and the wash buffer was TBST. For the ErbB-4 binding assays, PBS containing 1% BSA was used as the blocking and binding buffers, and the wash buffer was PBS containing 0.05% Tween 20™.

ErbB-4-Ig = biological target: T2, ErbB-4-Ig (Homo sapiens, UniProt Q15303); assay: as above; conditions: soluble thioredoxin (Trx)-variant fusions; HRG-β1 = recombinant HRG-β1 177-244
T2 construct: expressed the extracellular domain (ECD) of the ErbB-2, ErbB-3, or ErbB-4 receptor fused to a human IgG constant domain; made in house; host or cells: HEK-293 cells, secreted, Protein A purified
Procedure: as §1

T1 sequence (P21860 with tags, fused parts or gaps): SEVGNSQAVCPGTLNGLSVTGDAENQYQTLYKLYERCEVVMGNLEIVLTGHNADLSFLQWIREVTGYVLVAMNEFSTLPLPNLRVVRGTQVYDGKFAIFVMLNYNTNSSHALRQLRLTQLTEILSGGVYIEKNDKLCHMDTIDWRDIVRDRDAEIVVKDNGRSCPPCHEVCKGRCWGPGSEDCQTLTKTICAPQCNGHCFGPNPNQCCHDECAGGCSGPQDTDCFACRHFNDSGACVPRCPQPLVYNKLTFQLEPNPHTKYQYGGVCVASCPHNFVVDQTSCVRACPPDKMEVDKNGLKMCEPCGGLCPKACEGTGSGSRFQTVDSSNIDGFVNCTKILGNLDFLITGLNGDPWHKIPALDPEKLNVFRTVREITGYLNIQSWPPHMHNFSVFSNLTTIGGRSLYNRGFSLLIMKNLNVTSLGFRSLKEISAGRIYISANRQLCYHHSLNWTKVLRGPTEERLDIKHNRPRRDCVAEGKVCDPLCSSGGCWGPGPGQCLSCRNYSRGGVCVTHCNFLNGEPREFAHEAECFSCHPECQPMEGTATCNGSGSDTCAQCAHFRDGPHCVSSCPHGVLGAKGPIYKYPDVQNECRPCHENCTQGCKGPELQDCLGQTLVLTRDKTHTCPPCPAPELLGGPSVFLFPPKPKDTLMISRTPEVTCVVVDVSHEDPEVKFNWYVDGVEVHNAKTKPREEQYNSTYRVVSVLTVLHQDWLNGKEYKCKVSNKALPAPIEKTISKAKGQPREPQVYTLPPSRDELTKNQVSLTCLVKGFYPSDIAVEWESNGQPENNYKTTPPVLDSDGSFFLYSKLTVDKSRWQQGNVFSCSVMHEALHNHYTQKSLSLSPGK
T2 sequence (Q15303 with tags, fused parts or gaps): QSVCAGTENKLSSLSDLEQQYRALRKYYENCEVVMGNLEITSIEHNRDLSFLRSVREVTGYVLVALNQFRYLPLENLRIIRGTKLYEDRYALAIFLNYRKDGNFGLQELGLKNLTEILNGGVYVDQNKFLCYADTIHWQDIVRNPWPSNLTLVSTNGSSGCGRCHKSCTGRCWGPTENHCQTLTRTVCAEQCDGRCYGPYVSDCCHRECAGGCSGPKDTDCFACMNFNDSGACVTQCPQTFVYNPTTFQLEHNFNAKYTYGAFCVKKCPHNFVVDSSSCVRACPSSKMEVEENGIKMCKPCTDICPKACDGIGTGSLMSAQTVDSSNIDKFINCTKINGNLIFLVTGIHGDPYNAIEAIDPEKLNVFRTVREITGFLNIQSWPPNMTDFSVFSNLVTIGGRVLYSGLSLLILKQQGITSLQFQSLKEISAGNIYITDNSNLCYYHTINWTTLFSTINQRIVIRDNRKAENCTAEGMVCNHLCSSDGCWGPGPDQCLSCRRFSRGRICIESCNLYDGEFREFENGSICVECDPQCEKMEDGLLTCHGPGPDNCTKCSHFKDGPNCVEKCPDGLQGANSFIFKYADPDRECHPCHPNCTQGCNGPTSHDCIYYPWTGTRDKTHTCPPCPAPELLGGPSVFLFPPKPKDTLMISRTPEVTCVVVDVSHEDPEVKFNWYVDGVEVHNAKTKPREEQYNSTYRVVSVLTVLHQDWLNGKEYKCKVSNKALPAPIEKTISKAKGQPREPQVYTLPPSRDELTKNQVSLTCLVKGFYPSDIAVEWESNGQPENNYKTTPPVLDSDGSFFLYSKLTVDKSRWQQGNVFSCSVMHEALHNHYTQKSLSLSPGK

Molecule: B10: HRG-β1 EGF library B variant: A183D, E184K, K185S, E186R, K187E, T188G, M226I (SHLVKCDKSREGFCVNGGECFMVKDLSNPSRYLCKCPNEFTGDRCQNYVIAS; left off: large carriers; small tags and cut ends) [Variant B10]
- increase in ErbB-3 receptor (ErbB-3-Ig) affinity over wild-type HRG-β1 EGF (ErbB-3-Ig [1]; phage ELISA): up to 26 fold

B1: HRG8: wild-type HRG-β1 177-228 (minimal EGF-like domain); on phage linked via (GGGS)3 to pIII 323, or soluble (protein)
chain: SHLVKCAEKEKTFCVNGGECFMVKDLSNPSRYLCKCPNEFTGDRCQNYVMASGGGSGGGSGGGSNSQMAQVGDGDNSPLMNNFRQYLPSLPQSVECRPFVFSAGKPYEFSIDCDKINLFRGVFAFLLYVATFMYVFSTFANILRNKES
- higher affinity for the 2/3-heterodimer versus the 3/3 homodimer (ErbB-2/3-Ig): approximately 100 fold

B2: R220: HRG-β1 variant with R220 mutated to alanine (protein)
chain: SHLVKCAEKEKTFCVNGGECFMVKDLSNPSRYLCKCPNEFTGDACQNYVMASFYKHLGIEFMEAEELY
modifications: left off: large carriers; small tags and cut ends
notes: HRG-β1 variant with R220 mutated to alanine
- Sol EC50, binding to the ErbB-3 receptor (ErbB-3-Ig [2]): no binding
- Sol EC50, binding to the ErbB-4 receptor (ErbB-4-Ig): no binding

B3: HRG63: HRG-β1 EGF control variant in which HRG-β1 202-204 of HRG8 are deleted (protein)
chain: SHLVKCAEKEKTFCVNGGECFMVKDPSRYLCKCPNEFTGDRCQNYVMASGGGSGGGSGGGSNSQMAQVGDGDNSPLMNNFRQYLPSLPQSVECRPFVFSAGKPYEFSIDCDKINLFRGVFAFLLYVATFMYVFSTFANILRNKES
- Phage ErbB-3 EC50 (wt)/EC50 (mut) (ErbB-3-Ig [1]; relative to wild-type HRG-β1 EGF-phage in the same assay run, above 1 = higher affinity, ± SD of 2-4 duplicate runs): 1.1 ± 0.8

From US7563583B2, “Heregulin variants” (Genentech, Inc., priority 1997, dated 2009)
